The values that follow come from patent publication US20180002412A1 (UNIVERSITY OF CONNECTICUT, published 2018).

Experiment [1] addresses T1, HSP90 (endogenous, from MDA-MB-231 cells and MDA-MB-231 xenograft tumor lysates) (human, UniProt P08238 2-724).
T1 construct: The isoform is not resolved in these experiments; HSP90α (P07900) may also be present; also called cell surface HSP90
The experiment is described as follows: immunoprecipitation from MDA-MB-231 xenograft tumor lysates, immunoblot with commercial HSP90 antibody. As to the method: RIPA lysates of xenograft tumor pieces were used for immunoprecipitation with 15 μg of HCAb1 and HCAb2. Immunoprecipitated HSP90β protein was detected on an immunoblot using commercial HSP90 antibody. […] Equal amounts of HCAb1 and HCAb2 were pulled down as detected by anti-mouse IgG antibody.
Xenograft tumor pieces were placed in 500 μL of 1% Triton™ X-100+0.1% SDS/PBS lysis buffer supplemented with 0.2 mM sodium orthovanadate and fresh protease inhibitor cocktail (1:100) and homogenized using polytron homogenizer for 30 sec −1 min on ice. Homogenates were spun at 14,000 rpm for 20 min at 4° C. and supernatants were used for immunoprecipitation.
We also wanted to determine if HCAb2 can bind to HSP90 from the xenograft tumor lysates. Xenograft tumor pieces were homogenized and incubated with exogenous HCAb1 and HCAb2. Immunoprecipitated proteins were detected using the commercial HSP90 antibody. […] In summary, we observed that HCAb2 bound preferentially to a small population of MDA-MB-231 xenograft tumor cells in comparison to the normal mouse tissues and also pulled down HSP90 from xenograft tumor lysates.
For orientation: In western blotting, separated proteins are transferred to a membrane and probed.

The next experiment has as its target T2, Recombinant human HSP90β (human, UniProt P08238 1-724, limits assumed).
T2 construct: Bought protein; also called heat shock protein HSP 90-beta; HSP90AB1
Kind of experiment: immunoprecipitation of recombinant HSP90β, immunoblot with commercial HSP90 antibody. As to the method:
FIGS. 4 A and B show a validation of the target antigens of HCAb1 and HCAb2. […] Immunoprecipitation of HSP90 was performed from cytosolic and plasma membrane (PM) fractions using HCAb2. The immunoprecipitated HSP90 was detected using a commercial HSP90 antibody. […] HCAb1 and HCAb2 (5 μg each) were used to immunoprecipitate recombinant HSP90β (1 μg) resuspended in either 1% Triton X-100+0.1% SDS or 1% Triton X-100+1% SDS buffers. The immunoprecipitated HSP90β protein was detected using a commercial HSP90 antibody. Equal amounts of HCAb1 and HCAb2 were pulled down as detected by anti-mouse IgG antibody.
The list of proteins identified for HCAb2 contained both HSP90α and HSP90β isoforms with HSP90β being the highest scoring protein (Table 2). […] Of the 45 peptides, 3 peptides were unique to HSP90α, while 15 peptides were unique to HSP90β and the remaining 27 peptides were common to both the isoforms. […] To test this, we used recombinant human HSP90β (highest scoring protein from Table 2) to determine the specificity of HCAb2. HCAb1 and HCAb2 were examined for their ability to immunoprecipitate HSP90β and the presence of HSP90β detected using the commercial HSP90 antibody. […] This interaction was abolished when the SDS concentration was elevated from 0.1% to 1%. […]

For the next experiment, the target named is T3, Clathrin heavy chain 1 (UniProt Q00610 2-1675).
T3 construct: Endogenous protein, immunoprecipitated from cell lysate and stained in permeabilized MCF7 cells; also called CLTC
The experiment is described as follows: immunoprecipitation from MDA-MB-231 1% Triton X-100 lysate, gel band identified by LC-MS/MS. The procedure: FIGS. 3 A and B show immunoprecipitation of respective target antigens by HCAb1 and HCAb2. 20 μg of HCAb1 and HCAb2 were used to immunoprecipitate the target antigens from 1% Triton X-100 (A) or 1% Triton X-100+0.1% SDS (B) MDA-MB-231 lysates. The immunoprecipitated proteins were run on a reducing SDS-PAGE gel and the proteins in the gel were stained with SYPRO® Ruby stain. * indicates the specific band for HCAb1 (A) and HCAb2 (B).
In order to determine the antigens recognized by the HCAbs, we performed immunoprecipitation of the antigens followed by protein identification using mass spectrometry. We chose MDA-MB-231 cell lysates since the respective target antigens for both HCAb1 (FIG. 1L) and HCAb2 (FIGS. 1C, 1I and 1O) were abundant in MDA-MB-231 cells. The immunoprecipitated proteins were run on a reducing SDS-PAGE gel and visualized using SYPRO® Ruby stain. […] Furthermore, these buffer conditions were unfavorable for HCAb1 to immunoprecipitate the band seen previously (FIG. 3A) in the buffer lacking SDS.
The specific gel bands (*) observed in FIGS. 3A and 3B were excised and the tryptic peptides were analyzed by mass spectrometry. Peptides identified from the analysis were used to search the SwissProt database to obtain the list of target proteins. Tables 1 and 2 list the top five proteins identified from the HCAb1 and HCAb2 immunoprecipitated bands, respectively. […]

T2 sequence (P08238 whole entry): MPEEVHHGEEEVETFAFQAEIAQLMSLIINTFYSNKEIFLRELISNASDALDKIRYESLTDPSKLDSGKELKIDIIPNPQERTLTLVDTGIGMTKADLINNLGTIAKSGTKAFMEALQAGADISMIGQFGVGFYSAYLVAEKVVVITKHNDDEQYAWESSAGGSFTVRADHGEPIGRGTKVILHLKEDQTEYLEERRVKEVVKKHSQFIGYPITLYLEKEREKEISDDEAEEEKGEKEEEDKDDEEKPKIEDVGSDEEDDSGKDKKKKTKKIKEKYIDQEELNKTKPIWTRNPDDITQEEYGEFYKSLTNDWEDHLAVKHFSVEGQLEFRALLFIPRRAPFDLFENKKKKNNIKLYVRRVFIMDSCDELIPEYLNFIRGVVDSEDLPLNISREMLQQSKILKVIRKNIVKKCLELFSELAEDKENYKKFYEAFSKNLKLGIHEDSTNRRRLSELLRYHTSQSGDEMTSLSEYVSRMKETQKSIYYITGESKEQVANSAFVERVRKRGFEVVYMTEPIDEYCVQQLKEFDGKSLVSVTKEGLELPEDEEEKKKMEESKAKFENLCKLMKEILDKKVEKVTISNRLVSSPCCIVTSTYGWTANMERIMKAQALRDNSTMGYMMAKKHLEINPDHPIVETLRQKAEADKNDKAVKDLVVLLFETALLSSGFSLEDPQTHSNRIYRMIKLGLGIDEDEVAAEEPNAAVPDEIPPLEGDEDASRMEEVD
T3 sequence (Q00610 2-1675 limits assumed): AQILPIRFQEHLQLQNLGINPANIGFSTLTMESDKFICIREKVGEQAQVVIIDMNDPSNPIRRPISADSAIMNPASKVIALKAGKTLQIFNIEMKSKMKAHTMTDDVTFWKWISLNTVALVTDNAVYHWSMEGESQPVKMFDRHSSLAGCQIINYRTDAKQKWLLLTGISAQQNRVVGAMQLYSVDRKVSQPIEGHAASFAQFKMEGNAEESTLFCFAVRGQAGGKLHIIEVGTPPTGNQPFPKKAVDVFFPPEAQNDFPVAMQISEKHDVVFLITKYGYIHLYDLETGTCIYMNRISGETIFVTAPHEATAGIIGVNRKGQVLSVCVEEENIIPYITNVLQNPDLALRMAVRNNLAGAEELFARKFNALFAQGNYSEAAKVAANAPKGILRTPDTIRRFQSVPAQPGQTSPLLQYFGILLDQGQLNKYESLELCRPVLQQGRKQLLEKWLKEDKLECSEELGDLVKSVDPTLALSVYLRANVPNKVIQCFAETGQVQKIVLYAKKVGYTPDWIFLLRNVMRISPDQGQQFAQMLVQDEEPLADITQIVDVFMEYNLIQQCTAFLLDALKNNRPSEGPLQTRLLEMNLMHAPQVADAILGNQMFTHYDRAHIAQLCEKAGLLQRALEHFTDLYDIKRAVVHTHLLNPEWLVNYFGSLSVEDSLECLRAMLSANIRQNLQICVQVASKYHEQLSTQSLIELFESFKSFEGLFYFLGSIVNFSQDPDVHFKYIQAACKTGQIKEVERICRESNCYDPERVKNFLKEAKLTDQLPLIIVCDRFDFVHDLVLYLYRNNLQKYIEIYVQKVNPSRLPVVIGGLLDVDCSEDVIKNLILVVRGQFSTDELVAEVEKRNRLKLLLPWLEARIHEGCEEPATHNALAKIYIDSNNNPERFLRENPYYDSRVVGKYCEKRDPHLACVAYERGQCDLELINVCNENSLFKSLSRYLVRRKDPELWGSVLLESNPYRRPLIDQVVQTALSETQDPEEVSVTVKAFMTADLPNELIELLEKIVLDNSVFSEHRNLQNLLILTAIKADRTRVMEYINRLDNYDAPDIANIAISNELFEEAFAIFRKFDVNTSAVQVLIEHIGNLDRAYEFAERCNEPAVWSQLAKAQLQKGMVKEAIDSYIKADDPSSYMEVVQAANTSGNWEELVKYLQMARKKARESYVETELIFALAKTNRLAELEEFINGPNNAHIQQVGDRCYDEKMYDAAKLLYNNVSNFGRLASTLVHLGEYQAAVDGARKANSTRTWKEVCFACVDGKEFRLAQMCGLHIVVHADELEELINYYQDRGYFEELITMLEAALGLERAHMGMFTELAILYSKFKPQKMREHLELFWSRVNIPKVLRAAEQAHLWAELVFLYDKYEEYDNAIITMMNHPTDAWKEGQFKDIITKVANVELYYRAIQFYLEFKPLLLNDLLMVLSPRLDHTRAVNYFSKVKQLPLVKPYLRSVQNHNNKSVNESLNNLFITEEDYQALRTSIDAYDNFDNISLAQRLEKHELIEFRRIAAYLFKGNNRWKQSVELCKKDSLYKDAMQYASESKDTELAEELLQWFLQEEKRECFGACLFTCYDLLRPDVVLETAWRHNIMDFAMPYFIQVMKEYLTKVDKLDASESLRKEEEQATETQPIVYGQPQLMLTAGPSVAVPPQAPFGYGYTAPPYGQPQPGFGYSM
T1 sequence (P08238 2-724 limits assumed): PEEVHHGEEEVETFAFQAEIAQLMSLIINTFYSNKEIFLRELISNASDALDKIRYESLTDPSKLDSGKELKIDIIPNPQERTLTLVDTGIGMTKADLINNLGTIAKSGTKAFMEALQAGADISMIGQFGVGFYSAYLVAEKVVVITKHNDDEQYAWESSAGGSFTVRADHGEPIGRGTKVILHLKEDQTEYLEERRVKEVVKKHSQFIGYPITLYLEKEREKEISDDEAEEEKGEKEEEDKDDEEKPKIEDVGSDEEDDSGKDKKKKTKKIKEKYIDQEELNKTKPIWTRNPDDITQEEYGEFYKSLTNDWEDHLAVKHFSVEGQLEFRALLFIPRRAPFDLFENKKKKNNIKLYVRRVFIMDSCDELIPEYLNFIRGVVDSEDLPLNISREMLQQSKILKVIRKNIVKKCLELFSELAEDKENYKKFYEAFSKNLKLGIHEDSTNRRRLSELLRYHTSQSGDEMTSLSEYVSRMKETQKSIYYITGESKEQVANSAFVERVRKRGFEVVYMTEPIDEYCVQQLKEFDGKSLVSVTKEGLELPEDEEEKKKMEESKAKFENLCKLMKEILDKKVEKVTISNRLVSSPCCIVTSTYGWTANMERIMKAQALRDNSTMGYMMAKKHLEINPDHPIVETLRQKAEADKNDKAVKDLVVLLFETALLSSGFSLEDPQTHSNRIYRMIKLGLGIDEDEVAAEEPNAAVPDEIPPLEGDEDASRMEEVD

B1: HCAb1 (Fc fusion)
heavy: QVQLVQSGGGLVQPGGSLRLSCAASGFTFSSYAMSWVRQAPGKGLEWVSAISGSGGSTYYADSVKGRFTISRDNSKNTLYLQMNSLRAEDTAVYYCARQEGQWLVQIDYWGQGTLVTVSS
notes: Human VH fused to the mouse Fc domain, no light chain, bivalent; It served as the control antibody for HCAb2; also called heavy chain antibody 1; not shown: mouse Fc domain from vector pCMV6-AC-FC-S (OriGene), with any junction residues encoded by the PCR primers
For the molecule B1, the binding result in experiment [1] was “no binding (tested: 15 µg of HCAb1)”; in the experiment with Recombinant human HSP90β it was “no binding (tested: 1 µg HSP90β)”; in the experiment with Clathrin heavy chain 1 it was “binds”.
